Laboratory results reported in patent US20110008344A1 (THOMAS JEFFERSON UNIVERSITY, published 2011).
Read-outs that look alike come from different tables or passages of the source.

Columns and labels:
[1] = biological target: T1, recombinant 50 kD C-terminal BoNT/A domain (HC50A) (Clostridium botulinum, UniProt P0DPI1 861-1296); experiment: SPR (Biacore 3000), 13A immobilized on CM5 chip, HC50A as analyte
[2] = biological target: T1, recombinant 50 kD C-terminal BoNT/A …; experiment: KinExA Direct Kinetics method, […]; KinExA, solution phase
[3] = biological target: T1, recombinant 50 kD C-terminal BoNT/A …; experiment: KinExA, solution phase
[4] = biological target: T1, recombinant 50 kD C-terminal BoNT/A …

B1: botulinum neurotoxin 13A antibody (human monoclonal antibody produced by hybridoma 13A, ATCC PTA-8871) (antibody, V domains shown)
VH: EVQLVESGGGLVQPGRSLRLSCTASGFTFGDSAMSWVRQAPGKGLEWVGFIRGKPYGGKPEYAASVKGRFTISRDDSKSIAYLQMNSLKTEDTAVYYCTAGMTTVTIYDYWGQGTLVTVSS
VL: QPLSVSVALGQTAGITCEGNNIGSKNVHWYQQKPGQAPVLVIYRDSNRPSGIPERFSGFNSGNTATLTISRVQAGDEADYYCQVWDSSTGVFGGGTELTVLG
kon [1]: 1.7e+07 M⁻¹ s⁻¹ | kon [2]: 7.2e+06 M⁻¹ s⁻¹ | Kd [3]: 0.097 nM | Kd [4]: 0.052 nM
